# Values of other authors in patent US20060193824A1, “Methods for the treatment of infectious and inflammatory airway diseases” (priority 2005, published 2006).
# B1: IL-4: cytokine obtainable from R & D Systems (protein, UniProt P05112 25-153, looked up)
# Interleukin-4: HKCDITLQEIIKTLNSLTEQKTLCTELTVTDIFAASKNTTEKETFCRAATVLRQFYSHHEKDTRCLGATAQQFHRHKQLIRFLKRLDRNLWGLAGLNSCPVKEANQSTLENFLERLKTIMREKYSKCSS
# B2: Human neutrophil elastase: Human neutrophil elastase (protein, UniProt P08246 30-267, looked up)
# Neutrophil elastase: IVGGRRARPHAWPFMVSLQLRGGHFCGATLIAPNFVMSAAHCVANVNVRAVRVVLGAHNLSRREPTRQVFAVQRIFENGYDPVNLLNDIVILQLNGSATINANVQVAQLPAQGRRLGNGVQCLAMGWGLLGRNRGIASVLQELNVTVVTSLCRRSNVCTLVRGRQAGVCFGDSGSPLVCNGLIHGIASFVRGGCASGLYPDAFAPVAQFVNWIDSIIQRSEDNPCPHPRDPDPASRTH
# B3: IL-10: cytokine obtainable from R & D systems (protein, UniProt P22301 19-178, looked up)
# Interleukin-10: SPGQGTQSENSCTHFPGNLPNMLRDLRDAFSRVKTFFQMKDQLDNLLLKESLLEDFKGYLGCQALSEMIQFYLEEVMPQAENQDPDIKAHVNSLGENLKTLRLRLRRCHRFLPCENKSKAVEQVKNAFNKLQEKGIYKAMSEFDIFINYIEAYMTMKIRN
# How the values were obtained:
# [1] = tested on: respiratory epithelial cells
molecule,measurement,setting,value
B1,mucus production,mucus production,modulates mucus production
B2,MUC5AC levels,[1],increase MUC5AC levels
B3,inflammation,inflammation,attenuates excessive inflammation
